Test results published in PMC3381609.

Substrate: O=C1OC2(c3ccc(O[C@@H]4O[C@H](CO)[C@H](O)[C@H](O)[C@H]4O)cc3Oc3cc(O[C@@H]4O[C@H](CO)[C@H](O)[C@H](O)[C@H]4O)ccc32)c2ccccc21
Assay: purified protein
Type: biochemical, Saccharolobus solfataricus
Conditions: no indole, pH 6.5, 37 °C, 50 mM sodium phosphate, 5% DMSO

B1: β-glycosidase (β-gly) (Saccharolobus solfataricus P2; W33G) (protein)
chain: MYSFPNSFRFGWSQAGFQSEMGTPGSEDPNTDGYKWVHDPENMAAGLVSGDLPENGPGYWGNYKTFHDNAQKMGLKIARLNVEWSRIFPNPLPRPQNFDESKQDVTEVEINENELKRLDEYANKDALNHYREIFKDLKSRGLYFILNMYHWPLPLWLHDPIRVRRGDFTGPSGWLSTRTVYEFARFSAYIAWKFDDLVDEYSTMNEPNVVGGLGYVGVKSGFPPGYLSFELSRRAMYNIIQAHARAYDGIKSVSKKPVGIIYANSSFQPLTDKDMEAVEMAENDNRWWFFDAIIRGEITRGNEKIVRDDLKGRLDWIGVNYYTRTVVKRTEKGYVSLGGYGHGCERNSVSLAGLPTSDFGWEFFPEGLYDVLTKYWNRYHLYMYVTENGIADDADYQRPYYLVSHVYQVHRAINSGADVRGYLHWSLADNYEWASGFSMRFGLLKVDYNTKRLYWRPSALVYREIATNGAITDEIEHLNSVPPVKPLRH
B1 was tested. Which Km did it give?
Its Km is 1080 ± 30 µM.

And the kcat?
The kcat was 0.00675 ± 0.00004 s⁻¹.

B2: β-glycosidase (β-gly) (Saccharolobus solfataricus P2) (protein)
chain: MYSFPNSFRFGWSQAGFQSEMGTPGSEDPNTDWYKWVHDPENMAAGLVSGDLPENGPGYWGNYKTFHDNAQKMGLKIARLNVEWSRIFPNPLPRPQNFDESKQDVTEVEINENELKRLDEYANKDALNHYREIFKDLKSRGLYFILNMYHWPLPLWLHDPIRVRRGDFTGPSGWLSTRTVYEFARFSAYIAWKFDDLVDEYSTMNEPNVVGGLGYVGVKSGFPPGYLSFELSRRAMYNIIQAHARAYDGIKSVSKKPVGIIYANSSFQPLTDKDMEAVEMAENDNRWWFFDAIIRGEITRGNEKIVRDDLKGRLDWIGVNYYTRTVVKRTEKGYVSLGGYGHGCERNSVSLAGLPTSDFGWEFFPEGLYDVLTKYWNRYHLYMYVTENGIADDADYQRPYYLVSHVYQVHRAINSGADVRGYLHWSLADNYEWASGFSMRFGLLKVDYNTKRLYWRPSALVYREIATNGAITDEIEHLNSVPPVKPLRH
B2 was tested. Which Km did it give?
The Km was 58 ± 4 µM.

What about the kcat of the same protein?
The kcat was 0.265 ± 0.002 s⁻¹.
